The term stoichiometry N denotes the number of molecules, sites or subunits per partner or assembly.

Assay in all cases: cryo-EM structure
Data set [1] deals with pentameric vertex complex of CIV (vertex protein) (Chilo iridescent virus (CIV)).
Data set [2] addresses zip protein (CIV minor capsid protein) (Chilo iridescent virus (CIV)).
The data set “cryo-EM structure” deals with the molecule itself.

In turn, “pentameric vertex complex of CIV (vertex protein) (natural protein)” had a stoichiometry N in data set [1] of 5.
In turn, “zip protein (CIV minor capsid protein) (natural protein)” registered a stoichiometry N in data set [2] of 2.

B1: P50, the CIV major capsid protein (MCP) (natural protein)
chain: MSISSSNVTSGFIDIATKDEIEKYMYGGKTSTAYFVRETRKATWFTQVPVSLTRANGSANFGSEWSASISRAGDYLLYTWLRVRIPSVTLLSTNQFGANGRIRWCRNFMHNLIRECSITFNDLVAARFDHYHLDFWAAFTTPASKAVGYDNMIGNVSALIQPQPVPVAPATVSLPEADLNLPLPFFFSRDSGVALPTAALPYNEMRINFQFHDWQRLLILDNIAAVASQTVVPVVGATSDIATAPVLHHGTVWGNYAIVSNEERRRMGCSVRDILVEQVQTAPRHVWNPTTNDAPNYDIRFSHAIKALFFAVRNTTFSNQPSNYTTASPVITSTTVILEPSTGAFDPIHHTTLIYENTNRLNHMGSDYFSLVNPWYHAPTIPGLTGFHEYSYSLAFNEIDPMGSTNYGKLTNISIVPTASPAAKVGAAGTGPAGSGQNFPQTFEFIVTALNNNIIRISGGALGFPVL
On to B1, for which the “stoichiometry N” value in the data set “cryo-EM structure” worked out at 3.

The record behind these values is article PMC2911444 (Journal of molecular biology, 2008).
